Substitutions are numbered along the chain they refer to. Where two headings read alike, the source gives them in different places.
Experiments:
[1] = kinetic analysis, non-endpoint assay at 23° C.; format: biochemical; conditions: standard error in parenthetical
How it was run: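 Purified C-terminal 6-His-tagged recombinant enzymes expressed in bacteria; quizalofop-P or 2,4-D as substrate. Vmax reported as specific activity (umol herbicide product mg enzyme-1 min-1) and Km as mM herbicide substrate, with standard error.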

F1 hybrid maize plants [2] = test: efficacy field trial with segregating F1 hybrid plants; format: in vivo; conditions: for % Injury from V4 2,4-D / % Injury from V8 2,4-D: 2,4-D amine 2× at VE-V2 (plus quizalofop-P 0.5×), V4, V8; for % Injury from V4 Quizalofop / % Injury from V8 Quizalofop: quizalofop-P 2× at VE-V2, V4, V8
Procedure: Ten unique engineered proteins optimized for activity at higher temperatures were selected for maize transformation and analysis in plants. DNA constructs were produced for expressing these engineered proteins with codon usage optimized for monocot expression using methods known to those skilled in the art. Enhancers, promoters, leaders, introns, CTPs, and 3′UTRs were tested in various combinations with the engineered proteins in these DNA constructs. The DNA constructs were used to transform immature maize (LH244) embryos with these vectors using Agrobacterium tumifaciens and standard methods known in the art. Regenerated R0 transgenic plantlets were grown in the green house.
Transgenic R0 maize plants were screened by the application of quizalofop-P (2×) plus 2,4-D (2×) at 7 to 10 days following transplant into plugs (generally corresponding to V3-V4 growth stage). All constructs tested produced plants containing unique events that passed the RO screen. The R0 plants were selfed to generate R1 homozygous seed and the R0 was also used as the male to cross with inbred plants containing maize event MON89034 to generate segregating F1 hybrid seed for efficacy field trials.
An efficacy field trial was conducted with segregating F1 hybrid plants, with 50% hemizygous and 50% null for the transgene. Tolerance to quizalofop-P (2×) plus 2,4-D (2×) was assessed using two herbicide application regimens: (1) quizalofop-P (Assure II) at 0.16 lb ai/acre (2×) plus 0.25% v/v non-ionic surfactant (NIS) applied at VE-V2 growth stage followed by the same at V4 growth stage followed by the same at V8 growth stage and (2) 2,4-D amine at 2 lb ae/acre (2×) plus quizalofop-P at 0.04 lb ai/acre (0.5×) plus 0.25% v/v NIS applied at VE-V2 growth stage followed by 2,4-D amine at 2 lb ae/acre (2×) plus 0.25% v/v NIS applied at V4 growth stage followed by the same at V8 growth stage. The 50% of the plants that were null for transgene were removed by the first quizalofop-P application at VE-V2 growth stage. Plots were visually rated 10-14 days after application for crop injury on a scale of 0 to 100 with “0” being none and “100” being complete crop destruction. […] The percentage injury rating with 2× application of 2,4-D at V8 growth stage ranged from a high of 40% to a low of 0. Similarly, the percentage injury rating with 2× application of quizalofop-P at V8 growth stage ranged from a high of 90% to a low of 0. Variation in injury rating between plants expressing the same protein is likely due to variations in construct design or transgene insertion location.

F1 hybrid maize plants [3] = test: trait efficacy field trial, quizalofop-P pressure screening, F1 hybrid; format: in vivo; conditions: crop injury percentage; for 4X Qizalofop-P CIPV4 / 4X Qizalofop-P CIPV8: 0.32 lb ai/acre at VE-V2, V4, V8; for 8X Qizalofop-P CIPV4 / 8X Qizalofop-P CIPV8: 0.64 lb ai/acre at VE-V2, V4, V8; for 16X Qizalofop-P CIPV4 / 16X Qizalofop-P CIPV8: 1.28 lb ai/acre at VE-V2, V4, V8
Procedure: Separate trait efficacy field trials for quizalofop-P and 2,4-D pressure screening were conducted at one location each with F1 hybrid transgenic plants produced by crossing an inbred plant containing maize event MON89034 with an R1 plant containing MON-HT1, MON-HT2, MON-HT8, MON-HT9, and MON-HT10 with and without operably linked CTP sequences. Transgenic F1 hybrid plants containing maize events NK603×MON89034 were used for comparison as a control.
In the trait efficacy field trial for quizalofop-P tolerance, one of three herbicide treatments was used: (1) quizalofop-P (Assure II) at 0.32 lb ai/acre (4×) plus 0.25% v/v non-ionic surfactant (NIS) applied at VE-V2 growth stage followed by the same at V4 growth stage followed by the same at V8 growth stage; (2) quizalofop-P at 0.64 lb ai/acre (8×) plus 0.25% v/v NIS applied at VE-V2 growth stage followed by the same at V4 growth stage followed by the same at V8 growth stage; or (3) quizalofop-P at 1.28 lb ai/acre (16×) plus 0.25% v/v NIS applied at VE-V2 growth stage followed by the same at V4 growth stage followed by the same at V8 growth stage. Plots were visually rated as above. […] The injury rating for the control plants after all quizalofop-P application was 100%. Error was calculated using LSD (0.05).

[4] = 23° C., purified His-tagged protein
[5] = 23° C., purified His-tagged protein, read-out: Km Quizalofop
[6] = NDB = activity not robust enough for kinetic characterization
[7] = NDB = activity not robust enough for kinetic characterization, read-out: Km 2,4-D

B1: MON-HT8: engineered oxygenase protein, amino acid sequence SEQ ID NO:37 (protein)
chain: MHAALTPLTNKYRFIDVQPLTGVLGAEITGVDLREPLDDSTWNEILDAFHTYQVIYFPGQAITNEQHIAFSRRFGPVDPVPILKSIEGYPEVQMIRREANESGRVIGDDWHTDSTFLDAPPAAVVMRAIEVPEYGGDTGFLSMYSAWETLSPTMQATIEGLNVVHSATKVFGSLYQATNWRFSNTSVKVMDVDAGDRETVHPLVVTHPVTGRRALYCNQVYCQKIQGMTDAESKSLLQFLYEHATKFDFTCRVRWKKDQVLVWDNLCTMHRSVPDYGNAFRYLTRTTVAGDKPSR
Vmax Quizalofop [1, 4]: 0.46 (−0.02) umol herbicide product mg enzyme-1 min-1 | Km [1, 5]: 110 µM | Vmax 2,4-D [1, 6]: 0.11 (−0.01) umol herbicide product mg enzyme-1 min-1 | Km [1, 7]: 140 µM | % Injury from V4 2,4-D (F1 hybrid maize plants [2]; CTP A): 10% | % Injury from V8 2,4-D (F1 hybrid maize plants [2]; CTP A): 10% | % Injury from V4 Quizalofop (F1 hybrid maize plants [2]; CTP A): 1.25% | % Injury from V8 Quizalofop (F1 hybrid maize plants [2]; CTP A): 1.25% | % Injury from V4 2,4-D (F1 hybrid maize plants [2]; CTP B): 12.5% | % Injury from V8 2,4-D (F1 hybrid maize plants [2]; CTP B): 11.67% | % Injury from V4 Quizalofop (F1 hybrid maize plants [2]; CTP B): 9.17% | % Injury from V8 Quizalofop (F1 hybrid maize plants [2]; CTP B): 8.33% | % Injury from V4 2,4-D (F1 hybrid maize plants [2]; CTP C): 20% | % Injury from V8 2,4-D (F1 hybrid maize plants [2]; CTP C): 21.25% | % Injury from V4 Quizalofop (F1 hybrid maize plants [2]; CTP C): 30% | % Injury from V8 Quizalofop (F1 hybrid maize plants [2]; CTP C): 32.5% | % Injury from V4 2,4-D (F1 hybrid maize plants [2]; CTP None): 0% | % Injury from V8 2,4-D (F1 hybrid maize plants [2]; CTP None): 0% | % Injury from V4 Quizalofop (F1 hybrid maize plants [2]; CTP None): 85% | % Injury from V8 Quizalofop (F1 hybrid maize plants [2]; CTP None): 90% | 4X Qizalofop-P CIPV4 (F1 hybrid maize plants [3]; CTP A): 15 | 4X Qizalofop-P CIPV8 (F1 hybrid maize plants [3]; CTP A): 15 | 8X Qizalofop-P CIPV4 (F1 hybrid maize plants [3]; CTP A): 37.5 | 8X Qizalofop-P CIPV8 (F1 hybrid maize plants [3]; CTP A): 35 | 16X Qizalofop-P CIPV4 (F1 hybrid maize plants [3]; CTP A): 60 | 16X Qizalofop-P CIPV8 (F1 hybrid maize plants [3]; CTP A): 50 | 4X Qizalofop-P CIPV4 (F1 hybrid maize plants [3]; CTP B): 5 | 4X Qizalofop-P CIPV8 (F1 hybrid maize plants [3]; CTP B): 7.5 | 8X Qizalofop-P CIPV4 (F1 hybrid maize plants [3]; CTP B): 32.5 | 8X Qizalofop-P CIPV8 (F1 hybrid maize plants [3]; CTP B): 35 | 16X Qizalofop-P CIPV4 (F1 hybrid maize plants [3]; CTP B): 27.5 | 16X Qizalofop-P CIPV8 (F1 hybrid maize plants [3]; CTP B): 30 | 4X Qizalofop-P CIPV4 (F1 hybrid maize plants [3]; CTP C): 55 | 4X Qizalofop-P CIPV8 (F1 hybrid maize plants [3]; CTP C): 45 | 8X Qizalofop-P CIPV4 (F1 hybrid maize plants [3]; CTP C): 75 | 8X Qizalofop-P CIPV8 (F1 hybrid maize plants [3]; CTP C): 55 | 16X Qizalofop-P CIPV4 (F1 hybrid maize plants [3]; CTP C): 85 | 16X Qizalofop-P CIPV8 (F1 hybrid maize plants [3]; CTP C): 72.5

B2: MON-HT2: engineered oxygenase protein, amino acid sequence SEQ ID NO:18 (protein)
chain: B1 chain with I82L, G103S, T112S, S272A, V273A, G277A, N278G, A279K
Vmax Quizalofop [1, 4]: 1.41 (−0.11) umol herbicide product mg enzyme-1 min-1 | Km [1, 5]: 410 µM | Vmax 2,4-D [1, 6]: 0.23 (−0.01) umol herbicide product mg enzyme-1 min-1 | Km [1, 7]: 40 µM | % Injury from V4 2,4-D (F1 hybrid maize plants [2]; CTP A): 20% | % Injury from V8 2,4-D (F1 hybrid maize plants [2]; CTP A): 34.17% | % Injury from V4 Quizalofop (F1 hybrid maize plants [2]; CTP A): 0% | % Injury from V8 Quizalofop (F1 hybrid maize plants [2]; CTP A): 0% | % Injury from V4 2,4-D (F1 hybrid maize plants [2]; CTP B): 10.56% | % Injury from V8 2,4-D (F1 hybrid maize plants [2]; CTP B): 13.33% | % Injury from V4 Quizalofop (F1 hybrid maize plants [2]; CTP B): 11.67% | % Injury from V8 Quizalofop (F1 hybrid maize plants [2]; CTP B): 11.67% | % Injury from V4 2,4-D (F1 hybrid maize plants [2]; CTP C): 12% | % Injury from V8 2,4-D (F1 hybrid maize plants [2]; CTP C): 12% | % Injury from V4 Quizalofop (F1 hybrid maize plants [2]; CTP C): 14.33% | % Injury from V8 Quizalofop (F1 hybrid maize plants [2]; CTP C): 14.33% | % Injury from V4 2,4-D (F1 hybrid maize plants [2]; CTP None): 20% | % Injury from V8 2,4-D (F1 hybrid maize plants [2]; CTP None): 33.75% | % Injury from V4 Quizalofop (F1 hybrid maize plants [2]; CTP None): 0% | % Injury from V8 Quizalofop (F1 hybrid maize plants [2]; CTP None): 0% | 4X Qizalofop-P CIPV4 (F1 hybrid maize plants [3]; CTP A): 0 | 4X Qizalofop-P CIPV8 (F1 hybrid maize plants [3]; CTP A): 5 | 8X Qizalofop-P CIPV4 (F1 hybrid maize plants [3]; CTP A): 2.5 | 8X Qizalofop-P CIPV8 (F1 hybrid maize plants [3]; CTP A): 7.5 | 16X Qizalofop-P CIPV4 (F1 hybrid maize plants [3]; CTP A): 5 | 16X Qizalofop-P CIPV8 (F1 hybrid maize plants [3]; CTP A): 15 | 4X Qizalofop-P CIPV4 (F1 hybrid maize plants [3]; CTP B): 0 | 4X Qizalofop-P CIPV8 (F1 hybrid maize plants [3]; CTP B): 5 | 8X Qizalofop-P CIPV4 (F1 hybrid maize plants [3]; CTP B): 0 | 8X Qizalofop-P CIPV8 (F1 hybrid maize plants [3]; CTP B): 10 | 16X Qizalofop-P CIPV4 (F1 hybrid maize plants [3]; CTP B): 0 | 16X Qizalofop-P CIPV8 (F1 hybrid maize plants [3]; CTP B): 20 | 4X Qizalofop-P CIPV4 (F1 hybrid maize plants [3]; CTP C): 0 | 4X Qizalofop-P CIPV8 (F1 hybrid maize plants [3]; CTP C): 5 | 8X Qizalofop-P CIPV4 (F1 hybrid maize plants [3]; CTP C): 5 | 8X Qizalofop-P CIPV8 (F1 hybrid maize plants [3]; CTP C): 12.5 | 16X Qizalofop-P CIPV4 (F1 hybrid maize plants [3]; CTP C): 12.5 | 16X Qizalofop-P CIPV8 (F1 hybrid maize plants [3]; CTP C): 20 | 4X Qizalofop-P CIPV4 (F1 hybrid maize plants [3]; no CTP): 35 | 4X Qizalofop-P CIPV8 (F1 hybrid maize plants [3]; no CTP): 45 | 8X Qizalofop-P CIPV4 (F1 hybrid maize plants [3]; no CTP): 50 | 8X Qizalofop-P CIPV8 (F1 hybrid maize plants [3]; no CTP): 37.5 | 16X Qizalofop-P CIPV4 (F1 hybrid maize plants [3]; no CTP): 70 | 16X Qizalofop-P CIPV8 (F1 hybrid maize plants [3]; no CTP): 55
